One protein from publication PMC9969416 (Endocrinology, 2023) can be followed below.

This data set deals with the molecule itself. The data set is described as follows: crystal structure.

B1: ligand-binding domain (LBD) of human RXRα (residues 223-462) (domain or fragment)
chain: TSSANEDMPVERILEAELAVEPKTETYVEANMGLNPSSPNDPVTNICQAADKQLFTLVEWAKRIPHFSELPLDDQVILLRAGWNELLIASFSHRSIAVKDGILLATGLHVHRNSAHSAGVGAIFDRVLTELVSKMRDMQMDKTELGCLRAIVLFNPDSKGLSNPAEVEALREKVYASLEAYCKHKYPEQPGRFAKLLLRLPALRSIGLKCLEHLFFFKLIGDTPIDTFLMEMLEAPHQMT
As to B1, the binding result is reported as “binds”.
